Results as given in the Human Domainome abundance scans (Beltran et al. 2025).
± gives the uncertainty stated by the source.

B1: Transcriptional regulator ERG, residues 117 to 197; numbered along this chain, P11308 (parent)
chain: NMTTNERRVIVPADPTLWSTDHVRQWLEWAVKEYGLPDVNILLFQNIDGKELCKMTKDDFQRLTPSYNADILLSHLHYLRE
B2: Ras GTPase-activating protein 1, residues 281 to 341; numbered along this chain, P20936 (parent)
chain: RRRVRAILPYTKVPDTDEISFLKGDMFIVHNELEDGWMWVTNLRTDEQGLIVEDLVEEVGR

Variants of: B1
Assay: abundance fitness (aPCA) (normalised: wild type 0, dead -1); higher = more abundant; growth selection in yeast, the domain comes from the species named
Settings: Homo sapiens

Abundance fitness of substitutions, site by site:
R80: C 0.178 ± 0.088 | G -0.152 ± 0.054 | P -0.01 ± 0.083 | A 0.021 ± 0.061 | V -0.046 ± 0.055 | S -0.109 ± 0.064 | F 0.003 ± 0.089 | N 0.193 ± 0.17 | Y -0.466 ± 0.24 | Q 0.071 ± 0.11 | M 0.038 ± 0.08 | H 0.068 ± 0.47 | K -0.004 ± 0.1 | E -0.166 ± 0.15
L79: Y -0.454 ± 0.18 | G -0.195 ± 0.052 | F -0.215 ± 0.11 | S -0.141 ± 0.071 | P -0.19 ± 0.1 | R -0.002 ± 0.056 | N -0.259 ± 0.23 | D -0.106 ± 0.12 | H -0.076 ± 0.12 | Q -0.007 ± 0.087 | C 0.114 ± 0.091 | T 0.021 ± 0.094 | M 0.179 ± 0.098 | K -0.014 ± 0.092 | E -0.054 ± 0.086 | V 0.046 ± 0.05 | I 0.061 ± 0.11
Y78: S 0.148 ± 0.056 | N 0.305 ± 0.094 | H -0.119 ± 0.13 | V 0.071 ± 0.065 | Q 0.2 ± 0.088 | W -0.22 ± 0.087 | L 0.12 ± 0.051 | I 0.034 ± 0.089 | T 0.173 ± 0.087 | M 0.163 ± 0.078 | F -0.087 ± 0.13 | P -0.033 ± 0.08 | G 0.203 ± 0.044 | K 0.103 ± 0.085
E81: D 0.102 ± 0.14 | A -0.03 ± 0.089 | F -0.339 ± 0.19 | C -0.05 ± 0.092 | I -0.152 ± 0.24 | V -0.155 ± 0.088 | G 0.138 ± 0.057 | H 0.108 ± 0.18 | Q 0.016 ± 0.14 | Y -0.058 ± 0.21 | M -0.301 ± 0.17 | L 0.076 ± 0.14 | W -0.32 ± 0.086 | N 0.557 ± 0.38 | P -0.107 ± 0.15

Variants of: B2
Assay: as above
Settings: Homo sapiens

Abundance fitness of substitutions, site by site:
T11: I -0.055 ± 0.028 | L -0.169 ± 0.028 | H -0.129 ± 0.031 | N -0.026 ± 0.029 | C -0.028 ± 0.028 | G -0.416 ± 0.033 | A -0.05 ± 0.035 | R -0.126 ± 0.028 | K -0.13 ± 0.067 | W -0.213 ± 0.049 | F -0.184 ± 0.026 | Q -0.097 ± 0.084 | V 0.017 ± 0.029 | P -0.696 ± 0.051 | Y -0.278 ± 0.029 | E -0.108 ± 0.089 | D 0.016 ± 0.034 | S -0.05 ± 0.024
I7: H -0.305 ± 0.036 | S -0.236 ± 0.027 | C -0.231 ± 0.029 | Y -0.366 ± 0.032 | E -0.551 ± 0.1 | L -0.066 ± 0.03 | T -0.088 ± 0.047 | G -0.735 ± 0.044 | A -0.63 ± 0.054 | N -0.292 ± 0.032 | M -0.167 ± 0.065 | Q -0.473 ± 0.11 | R -0.055 ± 0.034 | D -1.01 ± 0.08 | K 0.037 ± 0.072
V4: C -0.465 ± 0.023 | H -0.739 ± 0.03 | E -0.929 ± 0.074 | R -0.631 ± 0.025 | N -0.865 ± 0.033 | F -0.082 ± 0.021 | Q -0.848 ± 0.062 | I -0.205 ± 0.023 | T -0.605 ± 0.027 | K -0.626 ± 0.043 | L -0.055 ± 0.021 | M -0.074 ± 0.032 | A -0.462 ± 0.026 | P -0.903 ± 0.045 | S -0.895 ± 0.027 | W -0.597 ± 0.038 | G -0.901 ± 0.027
R2: Q -0.172 ± 0.065 | P -0.189 ± 0.044 | V -0.232 ± 0.031 | G -0.241 ± 0.028 | H -0.183 ± 0.038 | T -0.128 ± 0.032 | M -0.053 ± 0.055 | C -0.347 ± 0.03 | I -0.159 ± 0.027 | N -0.099 ± 0.028 | E 0.007 ± 0.084 | W -0.371 ± 0.055 | S -0.164 ± 0.024 | K 0.027 ± 0.08 | F -0.196 ± 0.032 | Y -0.103 ± 0.034 | L -0.187 ± 0.031 | D -0.179 ± 0.034
R1: N 0.063 ± 0.037 | F 0.06 ± 0.058 | K 0.058 ± 0.11 | D 0.122 ± 0.053 | Y 0.018 ± 0.042 | C -0.065 ± 0.031 | I 0.072 ± 0.034 | L -0.067 ± 0.056 | T 0.029 ± 0.04 | P -0.283 ± 0.13 | V -0.016 ± 0.038 | Q -0.503 ± 0.39 | A -0.129 ± 0.047 | G -0.098 ± 0.047 | M 0.087 ± 0.074 | W -0.315 ± 0.059
T16: P -0.911 ± 0.074 | H -0.784 ± 0.047 | M -0.87 ± 0.12 | G -0.439 ± 0.027 | F -0.752 ± 0.04 | D -1.01 ± 0.068 | V -0.894 ± 0.047 | R -0.456 ± 0.029 | S -0.031 ± 0.024 | Q -1.03 ± 0.21 | C -0.38 ± 0.027 | I -0.879 ± 0.059 | A -0.746 ± 0.053 | N -0.605 ± 0.037 | L -0.973 ± 0.056
Y10: G -0.84 ± 0.091 | S -0.623 ± 0.042 | F -0.577 ± 0.042 | C -0.539 ± 0.05 | R -0.27 ± 0.045 | H 0.084 ± 0.045 | M -0.577 ± 0.096 | E -0.838 ± 0.46 | K -0.485 ± 0.15 | D -1.04 ± 0.13 | V -0.728 ± 0.06 | T -0.999 ± 0.098 | A -0.588 ± 0.088 | Q -0.422 ± 0.089 | N -0.35 ± 0.048
R5: C -0.072 ± 0.03 | N -0.754 ± 0.044 | K 0.052 ± 0.062 | T -0.21 ± 0.033 | P -0.919 ± 0.074 | M -0.025 ± 0.055 | F -0.398 ± 0.031 | L -0.256 ± 0.031 | W -0.531 ± 0.061 | Y -0.331 ± 0.03 | Q -0.01 ± 0.057 | D -0.86 ± 0.067 | I -0.055 ± 0.03 | A -0.354 ± 0.037 | V -0.007 ± 0.027 | H -0.398 ± 0.036 | G -0.796 ± 0.045 | S -0.272 ± 0.027 | E -0.138 ± 0.056
L8: D -0.149 ± 0.033 | Q -0.052 ± 0.058 | E -0.067 ± 0.062 | W -0.194 ± 0.043 | Y -0.084 ± 0.026 | K -0.129 ± 0.054 | M 0.044 ± 0.044 | R -0.059 ± 0.031 | P -0.99 ± 0.094 | N -0.102 ± 0.028 | S -0.03 ± 0.025 | F -0.075 ± 0.027 | H -0.037 ± 0.032 | V -0.039 ± 0.027 | G -0.012 ± 0.026 | A 0.074 ± 0.034 | C -0.052 ± 0.026
V13: S -0.015 ± 0.025 | A 0.018 ± 0.036 | Y -0.137 ± 0.028 | K 0.02 ± 0.072 | Q 0.025 ± 0.046 | P -0.34 ± 0.042 | W -0.152 ± 0.058 | I -0.019 ± 0.029 | R 0.071 ± 0.03 | E 0.019 ± 0.047 | N 0.058 ± 0.031 | C 0.015 ± 0.028 | G -0.04 ± 0.025 | T 0.084 ± 0.03 | H 0.012 ± 0.03 | L -0.053 ± 0.029 | M -0.013 ± 0.073 | F -0.185 ± 0.027 | D -0.047 ± 0.033
A6: M -0.804 ± 0.05 | F -0.919 ± 0.03 | C -0.829 ± 0.027 | T -0.84 ± 0.034 | H -0.925 ± 0.034 | V -0.899 ± 0.028 | N -0.908 ± 0.032 | I -0.885 ± 0.031 | R -0.908 ± 0.029 | Q -0.915 ± 0.061 | S -0.258 ± 0.02 | P -1.04 ± 0.05 | W -0.953 ± 0.051 | E -0.819 ± 0.054 | D -0.953 ± 0.035 | L -0.896 ± 0.029
P9: Q -0.091 ± 0.12 | A -0.026 ± 0.039 | S -0.044 ± 0.026 | R -0.311 ± 0.035 | Y -0.796 ± 0.046 | V -0.855 ± 0.054 | F -0.73 ± 0.039 | M -0.308 ± 0.082 | H -0.157 ± 0.036 | G -0.059 ± 0.03 | T -0.076 ± 0.038 | L -0.772 ± 0.048 | W -0.805 ± 0.095 | N -0.101 ± 0.031 | I -0.876 ± 0.055 | D 0.049 ± 0.033 | E -0.103 ± 0.069 | K -0.232 ± 0.07
R3: Y -0.045 ± 0.031 | Q -0.066 ± 0.06 | F 0.004 ± 0.032 | H -0.096 ± 0.032 | C -0.212 ± 0.029 | L -0.09 ± 0.028 | V -0.1 ± 0.028 | W -0.378 ± 0.054 | S -0.136 ± 0.025 | P -0.51 ± 0.04 | D -0.514 ± 0.037 | A -0.292 ± 0.035 | N -0.126 ± 0.032 | I -0.073 ± 0.031 | T -0.136 ± 0.037 | G -0.383 ± 0.028 | K -0.01 ± 0.064 | M -0.158 ± 0.057
P14: E -0.06 ± 0.066 | Y -0.295 ± 0.033 | A -0.027 ± 0.03 | S -0.085 ± 0.025 | R -0.132 ± 0.03 | C -0.142 ± 0.026 | G -0.089 ± 0.025 | K -0.011 ± 0.061 | M -0.045 ± 0.063 | F -0.348 ± 0.031 | L -0.188 ± 0.032 | V -0.101 ± 0.027 | Q -0.055 ± 0.074 | D -0.023 ± 0.028 | I -0.124 ± 0.029 | T -0.076 ± 0.034 | H -0.146 ± 0.032 | N -0.075 ± 0.03
D15: C -0.126 ± 0.029 | E 0.05 ± 0.05 | K -0.169 ± 0.079 | Q -0.207 ± 0.072 | W -0.276 ± 0.059 | H -0.04 ± 0.034 | T -0.213 ± 0.048 | P -0.819 ± 0.071 | L -0.246 ± 0.033 | G -0.011 ± 0.025 | N -0.022 ± 0.037 | F -0.241 ± 0.027 | R -0.172 ± 0.03 | I -0.518 ± 0.045 | Y -0.168 ± 0.028 | M -0.269 ± 0.077 | A -0.129 ± 0.029 | V -0.577 ± 0.03
K12: C -0.101 ± 0.029 | L -0.779 ± 0.041 | S -0.077 ± 0.027 | D -0.806 ± 0.056 | T -0.7 ± 0.048 | R -0.052 ± 0.033 | Q -0.202 ± 0.096 | E -0.218 ± 0.11 | H -0.184 ± 0.033 | Y -0.824 ± 0.044 | V -0.788 ± 0.047 | M -0.188 ± 0.053 | A -0.029 ± 0.032 | F -0.985 ± 0.052 | P -0.102 ± 0.037 | I -1.01 ± 0.062 | G 0.023 ± 0.032
